Experimental data from paper doi:10.1101/488536, “The Ca^2+ sensor protein CMI1 fine tunes root development, auxin distribution and responses” (bioRxiv, 2018).

What was measured:
His6-ICR1 = biological target: T1, His6-ICR1 (Arabidopsis, UniProt Q8LE98 1-344); assay: co-IP; His6-CMI1 and His6-ICR1, 1 μg each, in 300 μL Ca^2+ reaction buffer (20 mM Tris-HCl pH 7.5, 5 mM CaCl2, 0.1 mg/mL BSA, 200 mM NaCl, 1% Triton X-100), RT; anti-CMI1 antibodies and Protein A beads; blot with anti poly-His; details: both partners purified
T1 construct: ICR1, Arabidopsis; also called His-ICR1; source: E. coli Rosetta (DE3), purified (Ni-NTA)
T1 sequence (looked up): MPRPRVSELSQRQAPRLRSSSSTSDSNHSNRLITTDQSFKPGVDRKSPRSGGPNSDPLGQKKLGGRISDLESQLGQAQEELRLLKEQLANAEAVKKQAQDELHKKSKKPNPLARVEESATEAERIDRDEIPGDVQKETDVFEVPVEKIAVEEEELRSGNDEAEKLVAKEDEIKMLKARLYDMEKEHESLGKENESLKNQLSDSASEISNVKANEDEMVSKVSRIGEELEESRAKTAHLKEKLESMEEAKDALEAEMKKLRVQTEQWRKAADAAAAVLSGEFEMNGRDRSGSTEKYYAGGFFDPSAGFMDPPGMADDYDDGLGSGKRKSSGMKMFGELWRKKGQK

GST-ICR1 = biological target: T2, GST-ICR1 (Arabidopsis, UniProt Q8LE98 1-344); assay: pull-down; GST-ICR1 (1.2 μg) or GST (0.4 μg) on Glutathione sepharose, 0.5 μg His6-CMI1; 20 mM Tris-HCl pH 7.5, 5 mM CaCl2, 0.1 mg/mL BSA, 200 mM NaCl, 1% Triton X-100, RT; wash with 1 M NaCl; details: both partners purified
T2 construct: ICR1, Arabidopsis; source: E. coli Rosetta (DE3), purified (Glutathione sepharose)
T2 sequence (looked up): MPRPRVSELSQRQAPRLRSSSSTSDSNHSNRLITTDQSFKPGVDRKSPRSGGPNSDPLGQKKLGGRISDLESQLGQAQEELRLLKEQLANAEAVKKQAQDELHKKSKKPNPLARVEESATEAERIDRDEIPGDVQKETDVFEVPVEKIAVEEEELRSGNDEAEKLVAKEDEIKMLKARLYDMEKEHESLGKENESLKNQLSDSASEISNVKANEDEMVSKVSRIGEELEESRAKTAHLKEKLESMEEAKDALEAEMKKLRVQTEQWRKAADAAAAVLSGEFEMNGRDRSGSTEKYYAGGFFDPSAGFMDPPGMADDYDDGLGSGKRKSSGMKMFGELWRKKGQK

binding result (His6-ICR1): binds
binding result (GST-ICR1): binds
B1: His6-CMI1 (natural protein, Arabidopsis, UniProt O81831 1-130, looked up)
chain: MASPKSPTRPTQQNPQPNFHDFLPTMAGNLGGEGLIGELCNGFELLMDREKGVITFESLRRNAAAVLGLGDLTDEDVRCMIKEGDFDCDGALNQMEFCVLMFRLSPDLMEASRCLVTEVIEEEFGFTRRH
notes: CMI1, Arabidopsis, At4g27280; also called His-CMI1; source: E. coli Rosetta (DE3), purified (Ni-NTA)
